Earlier results as cited in PMC11695704.
pKd: −log10 of the molar value.

Molecular target: Clr-b (Mus musculus) (UniProt Q91V08)
UniProt Q91V08, sequence (Q91V08 whole entry): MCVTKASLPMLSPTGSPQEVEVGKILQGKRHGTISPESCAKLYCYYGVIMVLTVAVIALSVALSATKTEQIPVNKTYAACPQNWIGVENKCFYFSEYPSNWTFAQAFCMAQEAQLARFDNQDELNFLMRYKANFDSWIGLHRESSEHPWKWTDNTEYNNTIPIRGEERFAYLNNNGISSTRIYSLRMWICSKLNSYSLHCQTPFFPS

pKd: < 3.30
Substance: NKR-P1B (from UniProt P27812)
